Assay results: patent publication US20240083983A1 (Regeneron, published 2024)

Target: Influenza B hemagglutinin (HA) from B/Florida/4/2006 (Influenza B virus, strain …, UniProt P03463 16-583)

B1: mAb35490 (antibody, human IgG1, kappa, V domains shown)
VH: EVQLVESGGDLVQPGGSLRLSCAASGFTVSSNYMSWVRQVPGKGLDWVSVTYSGGNTYYADSVKGRFTISRHNSKNTLYLQMNSLRIEDTAVYYCATVPSFHGMDVWGQGTTVTVSS
VL: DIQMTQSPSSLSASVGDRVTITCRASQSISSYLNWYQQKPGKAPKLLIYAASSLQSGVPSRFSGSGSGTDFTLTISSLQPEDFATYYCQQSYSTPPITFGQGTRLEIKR
Question: With B1 as the binder, how does the EC50 read?
Answer: Its EC50 is 0.761 nM.
